Assay results from article PMC5291321 (Science (New York, N.Y.), 2016).
Like-named read-outs stand apart in the source and are kept apart here.

T1: full-length GluD2 (GluD2FL) (human, UniProt O43424 24-1007)
T1 sequence (looked up): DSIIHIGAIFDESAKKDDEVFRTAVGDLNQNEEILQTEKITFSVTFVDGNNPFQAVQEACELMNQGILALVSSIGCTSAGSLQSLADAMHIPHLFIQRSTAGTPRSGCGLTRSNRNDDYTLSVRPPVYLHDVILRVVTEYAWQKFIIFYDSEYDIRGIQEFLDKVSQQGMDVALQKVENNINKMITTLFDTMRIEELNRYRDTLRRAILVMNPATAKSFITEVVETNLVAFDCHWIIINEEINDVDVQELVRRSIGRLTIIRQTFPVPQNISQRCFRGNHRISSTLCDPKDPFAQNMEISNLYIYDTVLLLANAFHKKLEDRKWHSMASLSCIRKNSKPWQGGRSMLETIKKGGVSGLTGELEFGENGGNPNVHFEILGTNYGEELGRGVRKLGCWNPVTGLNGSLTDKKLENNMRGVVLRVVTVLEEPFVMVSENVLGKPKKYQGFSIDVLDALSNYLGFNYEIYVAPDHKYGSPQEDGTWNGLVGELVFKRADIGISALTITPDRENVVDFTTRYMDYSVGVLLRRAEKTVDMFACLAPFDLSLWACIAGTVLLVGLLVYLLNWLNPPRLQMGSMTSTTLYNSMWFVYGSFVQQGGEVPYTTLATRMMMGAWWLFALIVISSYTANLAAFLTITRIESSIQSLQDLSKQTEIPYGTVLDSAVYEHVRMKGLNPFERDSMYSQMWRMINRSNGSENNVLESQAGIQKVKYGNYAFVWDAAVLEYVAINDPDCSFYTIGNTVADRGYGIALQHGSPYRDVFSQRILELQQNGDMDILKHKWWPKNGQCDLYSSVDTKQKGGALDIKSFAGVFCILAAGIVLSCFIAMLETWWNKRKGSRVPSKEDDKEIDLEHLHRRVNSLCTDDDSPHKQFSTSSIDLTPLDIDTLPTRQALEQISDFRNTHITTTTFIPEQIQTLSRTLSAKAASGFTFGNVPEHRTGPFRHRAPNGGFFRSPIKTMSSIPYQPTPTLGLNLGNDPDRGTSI

B1: full-length Cbln1 (Cbln1FL) (natural protein, human, UniProt P23435 22-193, looked up)
chain: QNETEPIVLEGKCLVVCDSNPTSDPTGTALGISVRSGSAKVAFSAIRSTNHEPSEMSNRTMIIYFDQVLVNIGNNFDSERSTFIAPRKGIYSFNFHVVKVYNRQTIQVSLMLNGWPVISAFAGDQDVTREAASNGVLIQMEKGDRAYLKLERGNLMGGWKYSTFSGFLVFPL
B2: GluD2 amino-terminal domain (GluD2ATD) (domain or fragment, human)
chain: DSIIHIGAIFDESAKKDDEVFRTAVGDLNQNEEILQTEKITFSVTFVDGNNPFQAVQEACELMNQGILALVSSIGCTSAGSLQSLADAMHIPHLFIQRSTAGTPRSGCGLTRSNRNDDYTLSVRPPVYLHDVILRVVTEYAWQKFIIFYDSEYDIRGIQEFLDKVSQQGMDVALQKVENNINKMITTLFDTMRIEELNRYRDTLRRAILVMNPATAKSFITEVVETNLVAFDCHWIIINEEINDVDVQELVRRSIGRLTIIRQTFPVPQNISQRCFRGNHRISSTLCDPKDPFAQNMEISNLYIYDTVLLLANAFHKKLEDRKWHSMASLSCIRKNSKPWQGGRSMLETIKKGGVSGLTGELEFGENGGNPNVHFEILGTNYGEELGRGVRKLGCWNPVTGLNGSLTDKKLENNMRG
B3: mouse GluD1 amino-terminal domain (GluD1ATD) (domain or fragment)
chain: DSIIHIGAIFEENAAKDDRVFQLAVSDLSLNDDILQSEKITYSIKVIEANNPFQAVQEACDLMTQGILALVTSTGCASANALQSLTDAMHIPHLFVQRNPGGSPRTACHLNPSPDGEAYTLASRPPVRLNDVMLRLVTELRWQKFVMFYDSEYDIRGLQSFLDQASRLGLDVSLQKVDKNISHVFTSLFTTMKTEELNRYRDTLRRAILLLSPQGAHSFINEAVETNLASKDSHWVFVNEEISDPEILDLVHSALGRMTVVRQIFPSAKDNQKCMRNNHRISSLLCDPQEGYLQMLQISNLYLYDSVLMLANAFHRKLEDRKWHSMASLNCIRKSTKPWNGGRSMLDTIKKGHITGLTGVMEFREDSSNPYVQFEILGTTYSETFGKDMRKLATWDSEKGLNGSLQERPMGSRLQG

How the values were obtained:
[1] = target: T1, full-length GluD2 (GluD2FL); experiment: SPR
crystal structure [2] = target: the molecule itself; experiment: crystal structure
crystal structure [3] = target: the molecule itself; experiment: crystal structure; remark: listed apart in the source

| Binder | Kd [1] [nM] | stoichiometry N (crystal structure [2]) | stoichiometry N (crystal structure [3]) |
| --- | --- | --- | --- |
| B1 | ~125 |  |  |
| B2 |  | 2 | 4 |
| B3 |  | 2 |  |
